Results reported in paper PMC3033427, “Role of the Small GTPase Rho3 in Golgi/Endosome Trafficking through Functional Interaction with Adaptin in Fission Yeast” (PLoS ONE, 2011).
Residue numbers refer to the chain shown, from its start. Names and notes keep the numbering of the source.

T1: Apm1-GST (purified full-length Apm1 fused to GST) (S. pombe, UniProt Q9HFE5 1-426)
T1 construct: Apm1, µ1 subunit of the clathrin-associated adaptor protein-1 (AP-1) complex of fission yeast, full length; the methods give no details of the construct or its expression; also called GST-fused Apm1; µ1 subunit of the AP-1 complex; source: purified; not shown: GST, C-terminal, kept
T1 sequence (looked up): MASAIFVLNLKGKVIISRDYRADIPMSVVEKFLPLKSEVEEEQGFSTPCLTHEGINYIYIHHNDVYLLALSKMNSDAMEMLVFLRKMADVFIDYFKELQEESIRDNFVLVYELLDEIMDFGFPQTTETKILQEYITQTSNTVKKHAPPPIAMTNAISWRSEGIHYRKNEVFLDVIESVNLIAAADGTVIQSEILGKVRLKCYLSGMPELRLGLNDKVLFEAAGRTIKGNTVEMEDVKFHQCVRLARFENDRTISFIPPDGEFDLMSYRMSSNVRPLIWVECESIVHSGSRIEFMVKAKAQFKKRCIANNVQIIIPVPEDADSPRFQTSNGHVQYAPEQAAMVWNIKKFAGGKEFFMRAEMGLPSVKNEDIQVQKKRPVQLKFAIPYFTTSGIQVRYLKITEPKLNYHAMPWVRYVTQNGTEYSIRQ

B1: GFP-Rho3 (wild-type Rho3 fused to GFP) (natural protein, S. pombe, UniProt O13928 1-205, looked up)
chain: MSSCFGSKKKPIYRKIVILGDGAAGKTSLLNVFTKGYFPQVYEPTIFENYIHDIFVDGNSIELSLWDTAGQEEYDQLRSLSYSDTHVIMICFAVDSRDSLENVITKWLPEVSSNCPGVKLVLVALKCDLRGADEEQVDHSKIIDYEEGLAAAKKINAVRYLECSAKLNRGVNEAFTEAARVALAAQPRGTKDGADESHGTGCIIA
notes: Rho3, Rho-family small GTPase of S. pombe (SPAC23C4.08); complete open reading frame amplified from genomic DNA, first methionine as in the Sanger Institute database; The name GFP-Rho3 puts GFP at the N-terminus, but the methods say the ORF 'was ligated to the N-terminus of the GFP'; also called GFP-fused Rho3; source: S. pombe cells, overexpressed from the inducible nmt1 promoter, …
B2: GFP-Rho3E48V (effector domain mutant of Rho3 fused to GFP) (natural protein, S. pombe, UniProt O13928 1-205, looked up)
chain: B1 chain with E48V
notes: Rho3 of S. pombe (SPAC23C4.08), complete open reading frame, Glu48 changed to Val by site-directed mutagenesis; Analogue of the budding yeast rho3-V51 mutant; also called Rho3EV; GFP-Rho3EV; source: S. pombe cells, overexpressed from the inducible nmt1 promoter, in lysate (pull-down); not shown: GFP (S65T), N-terminal, kept
B3: GFP-Rho3G22V (GTP-locked variant of Rho3 fused to GFP) (natural protein, S. pombe, UniProt O13928 1-205, looked up)
chain: B1 chain with G22V
notes: Rho3 of S. pombe (SPAC23C4.08), complete open reading frame, Gly22 changed to Val by site-directed mutagenesis; also called Rho3GV; GFP-Rho3GV; source: S. pombe cells, overexpressed from the inducible nmt1 promoter, in lysate (pull-down); not shown: GFP (S65T), N-terminal, kept

Biological target: T1, Apm1-GST (purified full-length Apm1 …)
Test: affinity capillary electrophoresis; GFP-fused Rho3 sample migrating in 50 mM phosphate buffer pH 6.8 containing Apm1-GST at 200 µg/ml (control: GST-Rho3 at 200 µg/ml); 15 kV, 25°C, laser-induced fluorescence detection; migration time-shift = t(control) - t(affinity)

| Binder | migration time-shift [min] |
| --- | --- |
| B1 | 0.84 |
| B2 | 0.82 |
| B3 | 0.94 |

Biological target: T1, Apm1-GST (purified full-length Apm1 …)
Test: affinity capillary electrophoresis; GFP-fused Rho3 sample migrating in 50 mM phosphate buffer pH 6.8 containing Apm1-GST at 100 µg/ml (control: GST-Rho3 at 100 µg/ml); 15 kV, 25°C, laser-induced fluorescence detection; migration time-shift = t(control) - t(affinity)

| Binder | migration time-shift [min] |
| --- | --- |
| B1 | 0.45 |
| B2 | 0.25 |
| B3 | 1.33 |
